# Columns and labels:
# [1] = system: LPA receptor-null B103 cells (empty vector); experiment: Intracellular free Ca2+ (Fura-2AM) in B103 cells transfected with empty vector; type: cell-based, rat; conditions: gintonin 1 μg/ml; empty vector B103 cells
# Description: LPA family receptors are endogenous to cells of most organs. B103 rat neuroblastoma cells, known as LPA receptor-null cells (Valentine et al., Biochim Biophys Acta 1780. 597-605) were transiently transfected with a plasmid (vector) carrying one of genes coding for LPA1(edg-2), LPA2(edg-4), LPA3(edg-7), LPA4, LPA5 and LPA6 receptors or a plasmid carrying none of them (empty vector). Two or three days after transfection, the cells are suspended, and made permeable. Then, the permeable cells are treated with Fura-2AM, a fluorescent dye binding to calcium, and then with gintonin, followed by spectrofluorephotometry to examine whether gintonin induces an increase in intracellular free Ca^2+ level. […]
# Briefly, Fura 2-AM loaded cells were diluted with an experimental medium to a final density of 2˜4×10^6 cells/mL, and transferred to polystyrene cuvettes (Elkay Ultra-VU). […] Emission was detected at 510 nm Excitation and emission slit widths were 5 nm Background calibration was performed as described by Jørgensen et al. […]
# [2] = system: mutant NMDA receptor (S1312A); experiment: Gintonin-induced activation of mutant NMDA receptor S1312A in oocytes; type: cell-based
# Method: Two-electrode voltage-clamp recordings were obtained from individual oocytes placed in a small Plexiglas net chamber (5 ml). Electrophysiological experiments were performed using microelectrodes filled with 3 M KCl (resistance of 0.2-0.7 MΩ) and an Oocyte Clamp amplifier (OC-725C; Warner Instrument, Hamden, Conn.). For physiological recordings of NMDA receptor activity, oocytes were first perfused with Mg^2+-free ND96 (mM: 96 NaOH, 2 KOH, 0.3 CaCl2, 5 HEPES pH 7.6 with methanesulfonic acid). Then, the oocytes were clamped at −60 mV holding potential, followed by recoding NMDA currents (induced by administering […]) (Zheng et al., J Neurosci. 17, 8676-8686, 1997; Chang and Kuo, J Neurosci. 28, 1546-1556, 2008).
# Thus, it is understood that gintonin stimulates PKC to phosphorylate the NMDA receptor at a specific site (S1308), and thus that gintonin-induced NMDA receptor activation is associated with PKC activity.
# GPR35 = target: T1, GPR35 (Homo sapiens, UniProt Q9HC97); experiment: Intracellular free Ca2+ in GPR35-expressing B103 cells; type: cell-based
# T1 construct: host or cells: B103 rat neuroblastoma cells
# Description: Optionally, the method may further comprise (8) pre-treating the suspended B103 cells with LPA receptor antagonists and LPA receptor-mediated signaling-relevant drugs (e.g., pertussis toxin, PLC inhibitors, IP3 receptor antagonists) to examine whether the cells decrease or increase in intracellular free Ca^2+, prior to treatment with gintonin; (9) performing site-directed mutagenesis to identify an amino acid of LPA receptors with which gintonin interact to activate the LPA; and (10) examining whether gintonin activates orphan GPCRs including GPR35 and GPR87, and free fatty acid GPCRs including GPR40, GPR41, GPR43 and GPR120, all known for activation by LPA.
# In addition, GPR35 (Oka et al., Biochem Biophys Res Commun. 395, 232-237, 2010) and GPR87 (Tabata et al., Biochem Biophys Res Commun. 363, 861-866, 2007), both known as orphan GPCRs reacting with LPA, and GPR40, GPR41, GPR43 and GPR120 (Hirasawa et al., Biol Pharm Bull. 31, 1847-1851, 2008), all known as fatty acid receptors reacting with free fatty acids, were expressed in B103 cells when gintonin activity was tested.
# T1 sequence (Q9HC97 whole entry): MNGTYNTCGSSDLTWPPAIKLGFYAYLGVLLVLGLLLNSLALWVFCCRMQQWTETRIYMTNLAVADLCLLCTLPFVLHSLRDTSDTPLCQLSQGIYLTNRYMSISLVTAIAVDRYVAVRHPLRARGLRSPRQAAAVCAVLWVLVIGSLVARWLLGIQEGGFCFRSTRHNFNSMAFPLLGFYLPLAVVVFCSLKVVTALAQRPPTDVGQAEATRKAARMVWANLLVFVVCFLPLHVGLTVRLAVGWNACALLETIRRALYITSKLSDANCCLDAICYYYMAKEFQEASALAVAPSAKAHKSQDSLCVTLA
molecule,measurement,setting,value
gintonin: ginseng-derived glycolipoprotein; structural protein of ginseng major latex-like protein (MLP151) and ribonuclease-like storage proteins; crude gintonin used in tests (protein) chain 1: MGLTGKLICQTGIKSDGDVFHELFGTRPHHVPNITPANIQGCDLHEGEFGKVGSVVIWNYSIDGNAMIAKEEIVAIDEEDKSVTFKVVEGHLFEEFKSIVFSVHVDTKGEDNLVTWSIDYEKLNESVKDPTSYLDFLLSVTRDIEAHHLPK chain 2: RSDYPWAMFALRLQWPAGFCEVNNACDTKSLLNTFTIHGLYPYNAKGTPALYCDGTAFDVNSVSDFLAEMHLAWPSHETNTEDIQFWEHEWKKHGRCSEALLKQTDYFRTALAFRKAFDIVGLLNQEGIYPNNDLYRPKMIKEAIKKHLNAVPEIDFTKNENSEYVLTDINVCVNQQATRFVDCPTDDATDDYRLKFVRLPSKMKFADPRTNSII,increase in intracellular calcium level,[1],22.7 ± 4.1 nM
same,gintonin-induced NMDA receptor activation,[2],maintained gintonin-induced NMDA receptor activation
same,increase of intracellular calcium level,GPR35,"increase an intracellular calcium level in GPR35-expressing B103 cells, but slightly"
